Measurements as given in the DeepSol protein solubility set.

Experiment: soluble on expression in E. coli; label from the status in PepcDB or PDB records

Sequence	soluble on expression in E. coli
MGSDKIHHHHHHMIHLAVGRFNIDIIVKLDSIPPIDSSHMTDVLEIMPGGAATNYAVAVTKLGHSAKLLAKVGKSEVVRSLMEKVVELGVGLEYVEELNEKPSATLIFLRNDGTLSMVRRLGASILLTREDVKRRFGLFDVIHFASVSPNVVVRDPYAKLVSYDPGPQAKNIESVDVDILYVNEKEYEMIEDKNIRARFIVIKMGKKGAKIITETEECSVEPIQVEKIVDTTGAGDTFDAAFNVTYSEDKDIVKSLQVASVASGLKVSRIGGISSPTLEEVREYLRKKKPNVICK	not soluble
MNYQDNSLKSLKLGQKTEYASQYDRTLLQPVPRALNRDGLGITQNQPFTIGADIWTAYEISWLNEKGLPQVAIADIYLDYQSQNLIESKSFKLYLNSFNQSKFADFNAVQQTMQRDLSECAQGDVKVRLNPMAVYDSQKIDHLQGDCIDEQDIEITSYEFNANWLKDCVSDEIVEEKLVSHLLKSNCLITNQPDWGTLHIHYVGKKINQEKLLRYVVSFRQHNEFHEQCVERIFCDLMHYAKPEKLTVYARYTRRGGLDINPFRSNFENLPENLRLARQ	soluble
MKILVYGINYSPELTGIGKYTGEMVEWLAAQGHEVRVITAPPYYPQWQVGENYSAWRYKREEGAATVWRCPLYVPKQPSTLKRLLHLGSFAVSSFFPLMAQRRWKPDRIIGVVPTLFCAPGMRLLAKLSGARTVLHIQDYEVDAMLGLGLAGKGKGGKVAQLATAFERSGLHNVDNVSTISRSMMNKAIEKGVAAENVIFFPNWSEIARFQHVADADVDALRNQLDLPDNKKIILYSGNIGEKQGLENVIEAADRLRDEPLIFAIVGQGGGKARLEKMAQQRGLRNMQFFPLQSYDALPALLKMGDCHLVVQKRGAADAVLPSKLTNILAVGGNAVITAEAYTELGQLCETFPGIAVCVEPESVEALVAGIRQALLLPKHNTVAREYAERTLDKENVLRQFINDIRG	soluble
MDRMDKAAKINIINANVRNAQTGDYYYNPYKIVNKTFTDTDGKQVTLKIGITGVLPTQILVWDKANLEGKVTVDDPMEAVKTIVPQMKAAGADFILVAAHSGIGDNEYTKNEENEGYQIAGIEGVDAVATGHSHADFPNGDGTSFYAKYPGVDDVNGLINGKPVVMAGKFGDHLGIMDVKLTYTDGKWKVVNSKAKLEKIDTKSDIADKALIDMAAHDHDGTILTMFVRKLVRPL	not soluble
MGSDKIHHHHHHVDKLLYVAMSGAKQNMNSLAVRANNLANANTDGFKSDLEQARSMQAFGEGLPTRVFSMTENPSANFAAGPIKTTGRDLDIAVKGDGWIAVQAVDGGEAYTRSGSLSFDTSGLLRNDRGNPVMGDAGPIVLPLPIEKVEIAQDGTISVRPLGSTAEVIEEVGRIKLVNPGNQNLMRGEDGLFRQLSGVNAPADPNVAVESGAIEGSNVNAVDEMVSLIDLQRQFEMQVKMMKTAEEMDQASSSLMRIS	not soluble
MGSDKIHHHHHHMTVLILTNPFDITADDVILRLTERGVPVVRLDPADFPQQVVLHSEIGGNGWTGTLTTPHRILDLSTVTGIWYRRPRKFRLPAQMSQAEYEFAATEARRGFGGIINSLTGWINHPSAIGRAEYKPYQLHHAVQAGLNVPRTLITNDPKQAKGWCARVGDVVYKPLSAPSWLENGDTYVVFTTPITPDQWGDPAIGRTAHMFQQRLDKEFEVRLTMVDGKAFPAAIHAHSDAARIDWRSDYDALTYSIPTVPQRVLTGARDLLRRLHLRYAALDFIVSPDGRWHFLEVNPNGQYGWIEEHTGQPISDAIADALTRKEN	not soluble
MGSDKIHHHHHHMAKVVTLTATNGETIQFVEEVKAQGGMKDVMFSPNRDYVVAFLRDPADNETKERLEMITGQYRKRIFNQEGGEYLKKLYCWPTAVVEYNGKLGVVSPFYRDCFFFQYGSRNSDMLGIQGKEKDGKWFASANNRNKFLAPEELGDWMLHLKVCLMLARAVRRMHMAGLSHSDLGYKNCLIDPTTGQACLIDIDGLVVPGKHPPTVVGTPDFIAPEVVATSHLDVKDPNRKLPSRTTDLHALAVLIYMYLLYRHPLRGDKVFDPNDPQRDEELGMGKQALFVEHPTDRSNRIKTENIRPSEHPWKDTEKMPYTLTGTYLSDLFKRAFIDGLHNPQARPTADEWEQALVKTVDLLQPCSNASCEQKWYAFDNSKHPKCPFCGTAHHGKLPVLNLYSGTPDGKFRPDNHRIMVYSNQSLFKWHADNRVFPNEKLRSEDAKRVGYFVQHNGNWWLVNEALPEIYDVKAKQAIPIGGKVKLDDGGQILLQKGIGGRLLMVQMAG	not soluble
TPGKSDEAKDVFQVQDIPPVTAIGQSGLRLNLIGKNDRILNVNSPVLYENFMVGQVESAHFDPSDQSVHYTIFIQSPNDKLIHSASRFWLESGINIETTGSGIKLNSAPLPALLSGAISFDSPKTKNSKNVKSEDSFTLYDSRSEVANLPDDRSLYYTAFFKQSVRGLTVGSPVEYKGLNVGVVSDVPYFDRNDSLHLFENGWIPVRIRIEPSRLEINADEQSKEHWKQQFQTALNKGLTATISSNNLLTGSKMIELNDQPSASPKLRPHTVYAGDTVIATQGGGLDDLQVKLADLLDKFDKLPLDKTVAELNGSLAELKSTLKSANAALSSIDKLVGKPQTQNIPNELNQTLKELRTTLQGVSPQSPIYGDVQNTLQSLDKTLKDVQPVINTLKEKPNALIFNSSSKDPIPKGSR	not soluble
MSLSITRRVRLSVDTCCYEAEIAGILRPQLLKGRMSVREEFDAWAAEGKDRGMEDRHWHTAKHVLARMPVEPGDTVLDLGTGSGYALRALRDTNDAGPCYGLDGSPEMLRNAREYTDDDGIGFLRGDFDALPFATDSIDHVFSMEAFYYASDPPHTLEEIARVLRPGGTANIAVNYYEENVHSHEWQEFIDIEMTRWSADEYREAFREAGLAVAAQDTIPDREVEIPPADTFPTDEFETREAMVERYRELGTLLTVGVATEGHHHHHH	soluble
MVSVARELTVGINGFGRIGRLVLRACMEKGVKVVAVNDPFIDPEYMVYMFKYDSTHGRYKGSVEFRNGQLVVDNHEISVYQCKEPKQIPWRAVGSPYVVESTGVYLSIQAASDHISAGAQRVVISAPSPDAPMFVMGVNENDYNPGSMNIVSNASCTTNCLAPLAKVIHERFGIVEGLMTTVHSYTATQKTVDGPSRKAWRDGRGAHQNIIPASTGAAKAVTKVIPELKGKLTGMAFRVPTPDVSVVDLTCRLAQPAPYSAIKEAVKAAAKGPMAGILAYTEDEVVSTDFLGDTHSSIFDAKAGIALNDNFVKLISWYDNEYGYSHRVVDLLRYMFSRDAENLYFQ	soluble
PQFSLWKRPVVTAYIEGQPVEVLLDTGADDSIVAGIELGNNYSPKIVGGIGGFINTLEYKNVEIEVLNKKVRATIMTGDTPINIFGRNILTALGMSLNL	soluble
MGSDKIHHHHHHLLASGLEYSHHMSPDAMVEDITRLVEIWVTGWAGCRGYETRTEGRFPAALRADTTKEWEYFAHDPSDTEFAELAAKTAEAPARILTILTNDVARYTYLAQQHGLNVTSASQTMMIVDMETRDSEDPWLSDDDLKLTTFKKDGVHHAVVNAGESVAASGRVFVVGHTAVFDKIVTEPAYQRRGLGSFIMKALAAQAFEHDVENGLLLASLDGQKLYSHLGWTTLCHVLMLSSSNEGADLSVG	not soluble
DIALTQPASVSGSPGQSITISCTGTSSDVGSNNYVSWYQQHPGKAPKLMIYGGSNRPSGVSNRFSGSKSGNTASLTISGLQAEDEADYYCRSWDSNLSYSVFGGGTKLTVLGQPKAAPSVTLFPPSSEELQANKATLVCLISDFYPGAVTVAWKADSSPVKAGVETTTPSKQSNNKYAASSYLSLTPEQWKSHRSYSCQVTHEGSTVEKTVAPTEA	soluble
ATMTLTDANFQQAIQGDGPVLVDFWAAWCGPCRMMAPVLEEFAEAHADKVTVAKLNVDENPETTSQFGIMSIPTLILFKGGEPVKQLIGYQPKEQLEAQLADVLQ	soluble
SETWSVEQVCSWLVEKNLGELVHRFQEEEVSGAALLALNDRMVQQLVKKIGHQAVLMDLIKKYKQNTQGLKSPENPKKAALVMQTEAARDYRDKESSSPARHGEQMPSFYPAENLDNGLIDQRVLKQRRNVKQILARSKALQWTKSYVLPEFPYDVKCMLAEQKCPDHSMRIRIIEFLQADMTKYLEGSLYPSTQQYNDVVNALLQAHPFLDEDGCGFAGV	soluble
MDWGRFVEEKVREIRETVGDSKAIIALSGGVDSSTAAVLAHKAIGDRLHAVFVNTGFLRKGEPEFVVKTFRDEFGMNLHYVDAQDRFFSALKGVTDPEEKRKIIGRVFIEVFEEVAKKIGAEYLIQGTIAPDWIESQGKIKSHHNVGGLPEKLNLKLIEPLRDLYKDEVRELAKFLGLPEKIYNRMPFPGPGLAVRVIGEVTPEKIRIVREANAIVEEEVERAGLRPWQAFAVLLGVKTVGVQGDIRAYKETIAVRIVESIDGMTANAMNVPWEVLQRIAFRITSEIPEVGRVLYDITNKPPATIEFE	soluble
MRHLPTTDIQSTLRRGKSVEQFMGRSPASRNHIRHIELRPSNNLVEVWVYDVEDQGNEEWLDLYDFNELEKGEADLPAATFVDADAAIAYAQEALSANPSRWVNLGIAQSEYLDYIRSGRPDRWPAAA	not soluble
MNMAEVSKNQVEKALETVIYPGSGKNIVALGMVSEIFIADAKAYFSITVPADKASEMEPLRLAAERAAKSVEGIAGAVVALTADRKPGQQQPAPAGPTPARPAAATGRPAAAPGRPTPQPGSSKVGVPGVRAIIAVASGKGGVGKSTTAVNLALGLQALGLKVGMLDADIYGPSLPRLLKISGRPKQQEDRIILPMENYGLKVMSMGFLVDEEAAMIWRGPMVQSALMQMLREVAWGELDVLVLDMPPGTGDAQLTIAQQVPLAGAVIVSTPQDLALLDARKGITMFRKVEVPLLGVIENMSYFIAPDTGARYDIFGHGGAKAEAERIGVPFLGEVPLTISIREMSDAGTPVVVAEPDGPQAAIYREIAEKVWARMGADERKAAPKIVFELEHHHHHH	not soluble
MAHHHHHHMPSDRVPSGDGFNNPYGNTTLVGNWLEDRLQQRIVHKRRGGAAATWCAQGIFEDPAVTMARHPAEAQAALLHSTYDVDYGHRPGRTQRTASGGVDNSAAASTLMRGSKHNANAAGPGSASSTAKGGIDKVLLFSIDPVADPAAPLPLSTNADTYGAFYYGNDNGSVDNNGARHAGSATGATTSSPADQGDGGATAPPADADRNLYDSVSRAVAAAAAPSSSFRMPRAPMQRGANADATFSSSPVPRRHMLSLGVATTSTFGHTGWTLASSSATSAADHVGAAPWRPLQRHRLPNKDSMDDERWCSSKQAADTPVEHFTLQQRLPPVRM	not soluble
MHNSSSSTIGKPLIPQKLPEFLNAYENFIIAGHKEPDGDCIGSCLAMSFFLKRKNKNCILMSAGPFKRTEIKEYEHLFTDKLKISDKINPKTTGLIILDCSNFDRVGEIAELISGFNYIIIDHHATNTEKSDTSLIMPEAPSTTYLIQSIIEEIGEKLTKEEADALFFGLCTDTGFFRHLDAGSAEVFAHASRLIEAGANPKQTFMKINGGKKFESRLLISRILNRMKTYYDGRLVVSYETYDDLLEFGLESRDSDILYQLIQSIEGVEAICIVRQDSPSHCSVGFRSLDKIDVSKIAASFGGGGHKQASGLYIEGKFDDLIPRFVEAFGTQMLEHHHHHH	soluble
MSGLRVYSTSVTGSREIKSQQSEVTRILDGKRIQYQLVDISQDNALRDEMRTLAGNPKATPPQIVNGNHYCGDYELFVEAVEQDTLQEFLKLA	soluble
IIEEEQQSLTGRLNIAVLPTIAPYLLPRVFPIWKKELAGLEIHVSEMQTSRCLASLLSGEIDMAIIASKAETEGLEDDLLYYEEFLGYVSRCEPLFEQDVIRTTEVNPHRLWLLDEGHCFRDQLVRFCQMKGLHERQTAYSGGSMEAFMRLVESGQGITFIPQLTVEQLSPSQKELVRPFGMPRPVREVRLAVRQDYSRRKLREQLIGLLRSAVPSDMHKLQTGQHLAHHHH	soluble
MSFHVRFTLEAKADIERLYRFLAEHDFDVAERTLETIDSAWSLLEQFPFSCRKIDDANPFLREFIISFGNSGYVVLFEIEDSNTVTVLAVRHQLEDDYY	soluble
